Patent US20250136677A1 (ZOETIS SERVICES, published 2025)
Residue numbers refer to the chain shown, from its start.

Experiments:
[1] = biological target: T1, wildtype feline IL-31 protein (Feline_IL31_wildtype) (feline); test: SPR (Biacore), IL-31 on chip, 1:1 fit
T1 construct: Full length feline IL-31 with C-terminal His tag, secreted from ExpiCHO cells; also called fIL-31
T1 chain: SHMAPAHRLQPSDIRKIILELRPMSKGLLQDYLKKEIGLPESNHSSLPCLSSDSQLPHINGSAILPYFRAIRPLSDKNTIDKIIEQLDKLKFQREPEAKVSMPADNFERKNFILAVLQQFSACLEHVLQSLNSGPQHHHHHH
Method in brief: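 IL-31 was amine-coupled (NHS/EDC) to the chip at 5 μg/mL and quenched with ethanolamine, and candidate mAbs were flowed over it as analytes. Binding curves were fitted to a 1:1 model.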

[2] = biological target: T1, wildtype feline IL-31 protein …; test: cell-based or functional assay
[3] = biological target: T2, mutant feline IL-31 11E12 protein (Feline_IL31_11E12_mutant) (feline); test: indirect ELISA, feline IL-31 11E12 mutant coated
T2 construct: also called feline 11E12 mutant; 11E12 IL-31 mutant
T2 chain: T1 chain with D81A, I84A
Source text: To determine the impact of mAbs 11E12 and 15H05 ability to bind these mutant forms of feline IL-31, an indirect ELISA was run using the mutants directly coated on to an immunoassay plate. […] When mutant 11E12 is used as a capture protein, binding of mAb 11E12 is highly attenuated and binding of mAb 15H05 is partially attenuated. […] The minor attenuation of mAb 15H05s binding to the 11E12 mutant is likely due to translational effects of the mutations from movement of the two front helices effecting the 15H05 binding site. […] Unlike the 11E12 mutant, the changes in the random coil recognized by mAb 15H05 (mutant 15H05) had no impact on mAb 11E12 binding further supporting the distinction between the two epitopes (FIG. 6C).

[4] = biological target: T3, canine IL-31 protein (Canine_IL31) (canine); test: SPR (Biacore), IL-31 on chip, 1:1 fit
T3 chain: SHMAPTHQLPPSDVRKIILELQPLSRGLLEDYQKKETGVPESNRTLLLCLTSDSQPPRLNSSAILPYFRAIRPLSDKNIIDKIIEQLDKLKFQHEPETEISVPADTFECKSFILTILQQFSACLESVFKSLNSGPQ

[5] = biological target: T1, wildtype feline IL-31 protein …; test: SPR (Biacore), IL-31 on chip
Description: (§1) The affinity with which candidate mAbs bind canine and feline IL-31 was determined using surface plasmon resonance (SPR) on a Biacore system (Biocore Life Sciences (GE Healthcare), Uppsala, Sweden). To avoid affinity differences associated with differential surface preparation that can occur when immobilizing antibodies to surfaces; a strategy was employed where IL-31 was directly conjugated to the surface. Immobilization was obtained by amine coupling 5 μg/mL IL-31 using N-hydroxysuccinimide (NHS)/1-Ethyl-3-(3-dimethylaminopropyl) carbodiimide (EDC) chemistry. Chips were quenched with ethanolamine and the affinity with which all candidate mAbs bound to the immobilized IL-31 was evaluated. All curves were fit to a 1:1 model. […] Results for affinity measurements are described herein.
FIG. 2 details the affinity of antibodies with CDRs derived from mouse origin using biacore. […] These observations confirm the correct sequence for both mouse antibodies and indicate conversion to the chimeric form results in antibodies with equivalent or higher affinity when compared to the mouse parent with the exception of the mouse:feline 15H05 chimera which lost some affinity to both IL-31 species as a result of its conversion to the chimeric form. […]

[6] = biological target: T1, wildtype feline IL-31 protein …; test: cell-based or functional assay
[7] = biological target: T3, canine IL-31 protein (Canine_IL31); test: SPR (Biacore), IL-31 protein as surface capture
[8] = biological target: T3, canine IL-31 protein (Canine_IL31)
[9] = biological target: T3, canine IL-31 protein (Canine_IL31); test: cell-based or functional assay
[10] = biological target: T2, mutant feline IL-31 11E12 protein …; test: SPR (Biacore), IL-31 protein as surface capture
Description: as §1
(§2) Table 1 below describes the results for biacore analysis using multiple species of IL-31 protein as a surface capture.

[11] = biological target: T4, equine IL-31 protein (Equine_IL31) (equine); test: SPR (Biacore), IL-31 protein as surface capture
T4 construct: Recombinant equine IL-31
T4 chain: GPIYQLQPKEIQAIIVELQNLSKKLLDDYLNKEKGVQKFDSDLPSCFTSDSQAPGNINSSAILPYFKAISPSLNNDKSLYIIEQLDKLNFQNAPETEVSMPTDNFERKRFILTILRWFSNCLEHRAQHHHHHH
Description: as §1, §2

[12] = biological target: T1, wildtype feline IL-31 protein …; test: SPR (Biacore), IL-31 protein as surface capture
Description: as §1, §2

[13] = biological target: T5, mutant feline IL-31 15H05 protein (Feline_IL31_15H05_mutant) (feline); test: Biacore, IL-31 protein as surface capture
T5 construct: also called feline 15H05 mutant; 15H05 IL-31 mutant
T5 chain: T1 chain with P103A, D105A
Description: as §1, §2

B1: mouse:feline 11E12 chimera (antibody)
heavy: QVQLQQSGAELVKPGASVKLSCKASGYTFKYYDINWVRQRPEQGLEWIGWIFPGDGGTKYNETFKGKATLTTDKSSSTAYMQLSRLTSEDSAVYFCARGGTSVIRDAMDYWGQGTSVTVSSASTTAPSVFPLAPSCGTTSGATVALACLVLGYFPEPVTVSWNSGALTSGVHTFPAVLQASGLYSLSSMVTVPSSRWLSDTFTCNVAHPPSNTKVDKTVRKTDHPPGPKPCDCPKCPPPEAAGAPSIFIFPPKPKDTLSISRTPEVTCLVVDLGPDDSDVQITWFVDNTQVYTAKTSPREEQFNSTYRVVSVLPILHQDWLKGKEFKCKVNSKSLPSPIERTISKAKGQPHEPQVYVLPPAQEELSRNKVSVTCLIKSFHPPDIAVEWEITGQPEPENNYRTTPPQLDSDGTYFVYSKLSVDRSHWQRGNTYTCSVSHEALHSHHTQKSLTQSPGK
light: DIVLTQSPASLAVSLGQRATISCRASESVDNYGISFMHWYQQKPGQPPKLLIYRASNLESGIPARFSGSGSRTDFTLTINPVETDDVATYYCQQSNKDPLTFGAGTKLELKRSDAQPSVFLFQPSLDELHTGSASIVCILNDFYPKEVNVKWKVDGVVQNKGIQESTTEQNSKDSTYSLSSTLTMSSTEYQSHEKFSCEVTHKSLASTLVKSFQRSECQRE
notes: Mouse variable regions on feline IgG constant regions; made in HEK 293 cells
- Kd [1]: 0.13 nM
- koff [1]: 5.06e-05 s⁻¹
- kon [1]: 388000 M⁻¹ s⁻¹
- IC50, inhibition of feline IL-31-induced STAT3 phosphorylation, canine DH82 cells [2]: 4.4 µg/mL
- IC50, inhibition of feline IL-31-induced STAT3 phosphorylation, feline FCWF4 cells [2]: 3.45 µg/mL
- binding result [3]: binds
- Kd [4]: 0.000127 nM
- koff [4]: 8.7e-08 s⁻¹
- kon [4]: 684000 M⁻¹ s⁻¹

B2: Feline 11E12 1.2 (antibody, V domains shown)
VH: QVLLVQSGAEVKKPGASVKIFCKASGYSFTYYDINWLRQAPEQGLEWMGWIFPGDGGTKYNETFKGRLTLTADTSTNTVYMELSSLRSADTAMYYCARGGTSVIRDAMDYWGQGALVTVSS
VL: EVVLTQSSAFLSRTLKEKATITCRASESVDNYGISFMHWYQQKPNQAPKLLVKRASNLESGAPSRFSGSGSGTDFTLTISSPEPEDAATYYCQQSNKDPLTFGQGT
notes: Feline heavy and kappa constant regions; also called felinized 11E12 1.2
- IC50, inhibition of feline IL-31-induced STAT3 phosphorylation, canine DH82 cells [2]: > 100 µg/mL
- IC50, inhibition of feline IL-31-induced STAT3 phosphorylation, feline FCWF4 cells [2]: > 100 µg/mL
- binding result [5]: no binding

B3: ZTS-361 (antibody)
heavy: QVLLVQSGAEVRTPGASVKIFCKASGYSFTSYTIHWLRQAPAQGLEWMGNINPTSGYTENNQRFKDRLTLTADTSTNTAYMELSSLRSADTAMYYCARWGFKYDGEWSFDVWGAGTTVTVSSASTTAPSVFPLAPSCGTTSGATVALACLVLGYFPEPVTVSWNSGALTSGVHTFPAVLQASGLYSLSSMVTVPSSRWLSDTFTCNVAHPPSNTKVDKTVRKTDHPPGPKPCDCPKCPPPEAAGAPSIFIFPPKPKDTLSISRTPEVTCLVVDLGPDDSDVQITWFVDNTQVYTAKTSPREEQFNSTYRVVSVLPILHQDWLKGKEFKCKVNSKSLPSPIERTISKAKGQPHEPQVYVLPPAQEELSRNKVSVTCLIKSFHPPDIAVEWEITGQPEPENNYRTTPPQLDSDGTYFVYSKLSVDRSHWQRGNTYTCSVSHEALHSHHTQKSLTQSPGK
light: EIQMTQSPSSLSASPGDRVTITCRASQGISIWLSWYQQKPGNIPKVLINKASNLHIGVPSRFSGSGSGTDFTLTISSLEPEDAATYYCLQSQTYPLTFGGGTKLEIKRSDAQPSVFLFQPSLDELHTGSASIVCILNDFYPKEVNVKWKVDGVVQNKGIQESTTEQNSKDSTYSLSSTLTMSSTEYQSHEKFSCEVTHKSLASTLVKSFQRSECQRE
- Inhibition of IL-31 induced pSTAT3 IC50 (µg/ml), Feline IL-31 on Feline FCWF-4 cells [6]: 8.85 µg/ml
- Kd [1]: 0.474 nM
- koff [1]: 2.18e-05 s⁻¹
- kon [1]: 46000 M⁻¹ s⁻¹
- Kd [7]: 0.00241 nM
- IC50, inhibition of canine IL-31-induced STAT3 phosphorylation, feline FCWF4 cells [8]: 38.8 µg/mL
- Inhibition of IL-31 induced pSTAT3 IC50 (µg/ml), Canine IL-31 on Canine DH82 cells [9]: 23 µg/ml
- Kd [10]: 17.2 nM
- Kd [11]: 0.625 nM
- Kd [12]: 0.625 nM
- binding result [13]: no binding
